Data as given in US10059956B2, “Glycosyltransferase gene and use thereof” (SUNTORY HOLDINGS LIMITED, priority 2012, dated 2018).

Columns and labels:
[1] = tested on: rose (Noblesse, Ritapa Humera); test: Flower petal pigment analysis of recombinant rose introduced with NmGT8; assay type: in vivo
Description: Binary vectors pSPB4577, pSBP4578, pSBP5437 and pSBP5440 for expressing NmGT8 were constructed and introduced into rose (Noblesse, Ritapa Humera). […] Details of the introduced constructs are described below (see FIG. 21).
(§1) pBINPLUS was used for the basic skeleton of pSPB5477, and three expression cassettes were contained therein (consisting of 1: EI235S promoter, full-length cDNA pansy F3′5′H and mas terminator; 2: EI235S promoter, full-length cDNA torenia flavone synthase and mas terminator; and, 3: EI235S promoter, full-length cDNA NmGT8 and mas terminator).
as §1, with “of pSPB4578,” for “of pSPB5477,”, “1: perilla anthocyanin 3-acyltransferase promoter (described in PCT/JP2010/053909),” for “1: EI235S promoter,”, “terminator). […]” for “terminator).”
Pigments in the flower petals were analyzed for full-length cDNA torenia flavone synthase and full-length cDNA NmGT8 in those strains in which transcription products were confirmed. […] The flower petal extract was analyzed by high-performance liquid chromatography (Prominence (Shimadzu Corp.)). […] Non-recombinant rose not introduced with the genes was analyzed in the same manner as a control (FIG. 22). Flower petal extract diluted 50-fold was also analyzed with a high-performance liquid chromatograph (Shimadzu Corp.). The Shimadzu LCMS-IF-TOF was used for the detector and flavones were detected at […] ([Api-Glc+H]) and […] ([Lut-Glc+H]). […]

[2] = Enzyme activity of crude enzyme liquid of E. coli expressing NmGT0 to NmGT9 on apigenin (HPLC); assay type: biochemical, Nemophila menziesii; details: 80 μl crude enzyme liquid, UDP-glucose, 1 hour at 30° C., HPLC 330 nm
Experimental: 3 μg aliquots of each of pTOPO-NmGT0 to pTOPO-NmGT9 were treated with their corresponding restrictases followed by recovery of the resulting approximately 1.5 kb DNA fragments. 2 μg of vector pET15b was also treated with restrictase and ligated with the resulting DNA fragments to prepare E. coli expression constructs (pET-NmGT0 to pET-NmGT9).
pET-NmGT0 to pET-NmGT9 were introduced into E. coli strain […] using One Shot BL21 (DE3) (Invitrogen Corp.) in accordance with the protocol recommended by the manufacturer to acquire transformed E. coli. This E. coli was then cultured using the Overnight Express Autoinduction System 1 (Novagen Inc.) in accordance with the protocol recommended by the manufacturer. The transformed E. coli were cultured at 37° C. to an OD600 value of 0.5 in 2 ml of the prepared culture liquid (approx. 4 hours). This E. coli culture liquid was then used as a pre-culture liquid and added to 50 ml of culture liquid followed by final culturing overnight at 27° C. […]
A reaction liquid prepared by mixing 80 μl of crude enzyme liquid, 20 μl of 5 mM UDP-glucose, 20 μl of 1 M Tris HCl (pH 7.5) and 1 μl of 500 ng/μl apigenin on ice and bringing to a volume of 200 μl with water was held for 1 hour at 30° C. […] The Shimadzu PDA SPD-M10AVP was used for the detector and flavone was detected at 330 nm. […]

[3] = recombinant rose flower petal extract, LC-MS

B1: NmGT8: nemophila glycosyltransferase (SEQ ID NO: 1/2) having activity that transfers a sugar to the hydroxyl group at the 4′-position of a flavone (protein, listed as Nemophila menziesii)
chain: MEKKTIILYPSPGIGHLVSMVELAKLILNREPSYSIIIFISSAPYSTGSSAPYISHVSATTSGISFHHLPVLVLPPNTFSSFEEIAYKIPQLNNPNLKLALQTISKESSDLKAFIIDFFCTAAVEVSSNLEIPTYFFFTSGSSAMCQFLYLPTLHETITQKDLQDPNTYVHIPGIPPIHSLDLPKVLSNRSTVLYKELINTANQMAKCSGILINAFETLEPKAVKALKEGLCTPGMPTPPVYCIGPLIASGDKGNVNDAHGHEILTWLNSQPSKSVVFLCFGSLGTFKEDQLKEIAIGLENSGHRFLWVMKSPPIDDKTKRFLPPPEPDFNVLLPEGFLERTKERGVIVKSWAPQLAILNHDAIGGFVTHCGWNSVLEAICGGVPMLAWPLYAEQRVNRVCMVEEMKVALPLEESVDGFVMASEIEKRVKELVDYESSEAIRDQVKIMSEKAKTAVAVSGSSHDALTKLLDGWK
flavone 4′-glucoside share of the biosynthesized flavones [1, 3]: 97.0%
flavone 7-glucoside share of the biosynthesized flavones [1, 3]: 3.0%
flavones detected in flower petals ([1]; recombinant rose introduced with flavone synthase and NmGT8, HPLC): apigenin 4′-glucoside and luteolin 4′-glucoside were detected
HPLC peak other than substrate [2]: a peak other than that of the substrate was observed
